Results published in the DeepSol protein solubility set.

Assay: soluble on expression in E. coli; label from the status in PepcDB or PDB records

Sequence | soluble on expression in E. coli
MILKPENEKKLIIDVLKKFGVPEEDAKITADVFVDADLKGFTSHGIGRFPQYITALKLGNINPKPDIKIVKESPATAVIDGDLGLGQVVGKKAMELAIKKAKNVGVGVVATRNANHFGIAGYYSELAMNQDMIGITITNTEPAMAPFGGKEKILGTNPIAIAFKGNKYKFSLDMATASIARGKILEALRKKIKIPEGCAVDKDGKPTTDPAKALEGCILPFGGPKGYGLALAIEMLSAIGGAEVGTKVKGTANPEERCTKGDLFIAINPEFFMGKEEFKRKVDELLDEIKNSEPAEGFEILIPGEIEERNKMKRKDGFEIDKNLYNQLKEICNELGLNIEDYIE | soluble
MILKTTLELVIDVKNNEKKIRTHSWKTKKIPPKKGEVSGQKLMVEKKSSKIFIENLKCQGNSAKNIFVFHLDLLHIKKLKNLNISMSSTDPILDISFDKPVYYPGDNMKLTVSVDTKRPLNARSVMFRCRGFRNRTVSFLNKYGIAWICKDGKNELPVGRLEQKFQFELGKDCPPTYKDGKIIYKVRLEIDQPWSRPLFIEKEFKMVHKLADQKMSQVMTYTSSPRFDALFSNGQPTFKVTMPKFTLYPGETTEFKLEVENHSSSTVKKIYAELEAEPFPLYHIYGNTKAKGKMHVLVAPYSTQKFTIPFTIPTDLTASFHTCGSSLKYTMKFGLVTDSWLTTDPALALVVSIGELESEEKKDEALKTPPPPPYTA | not soluble
MILLIDNYDSFVFNVKSMLEQLSNDEILVRRNDAISLSEIKNLNPTHIILSPGPKHPSQSGICLEIFKARLNIPVLGICLGHQALALAFDSLVVKMQEPMHAKNSLIKQCRENELFSNLPSNFSVMRYHSLEVKQLSDELEILALDEKGVIMALGHKNLPYYGVQFHPESYFSEYGLQLFSNFLKQDIKKPQKQENPLSFYLQKMSENHFLQSDDFEQICKIIMSKDYEILQVVALLILITEKSLNEKSLSAFVRQILRYSQTFSDESEMIDICGTGGDGFKSINVSTTSAFILAALGVKVAKHGNRAISSSSGSTDVLEALNITTPNTLESVLKQLNNQGLSFLHAPFFHPLVGELKEIRSRLGVRTVFNVLGPLLHPNLKLKYQLMGNYHAPVHRLLIEVLKNLGRKKALVVRGNDGMDELSICDESKIYELCEGEILEYSICPEQFGFKRAFHSEIIGSSAYDNAKDLKDILSGRMQGAKFDLVVLNAMFALYTANKASSPLVAKDMILEAIYSGKVIEYFKEYQAYAKA | not soluble
MILMESLSVSGTETVSVPQDWNVMDVIGAKSWYVVSEKEPSWEEIIKGKTVEAVDEPPSRFEVISTSPLVLKKDTKYYIYNSTLKKWLVLEYEEPQSSRKLVMNGQGKVTLLLRSSGSWNVRYYLFEDTLTGNAFLSVSGVESADVFLISRPAGEASIWKGMYLSASPSREMPEEHESEEVKVYHLGKVKDLDKSPVVNLIETNLFNVNEYYSYSFAVNDSIFDYQKTTFTRSFMTPVDLPGGTVSIFSNISGVDIMIGETSIPDTPKNSLLELPVTDSWDVRVKGEILDERNYKDTYEYERTWRVTVQNLNETESKVRINIYGNMMRLLRSSIKPLKETSDQIVFELIVPPNSEKEFEFKVRSGWLEHHHHHH | not soluble
MILVFLGPPGAGKGTQAKRLAKEKGFVHISTGDILREAVQKGTPLGKKAKEYMERGELVPDDLIIALIEEVFPKHGNVIFDGFPRTVKQAEALDEMLEKKGLKVDHVLLFEVPDEVVIERLSGRRINPETGEVYHVKYNPPPPGVKVIQREDDKPEVIKKRLEVYREQTAPLIEYYKKKGILRIIDASKPVEEVYRQVLEVIGDGN | soluble
MIMKANIFNIQRFSIHDGPGIRTVVFFKGCPLRCPWCSNPESQHRPPQILWDKKKCFYGHLCEVKCPAGCLNFENNNLVFSADNCTGCKSCITQCPGKALTFVGNMMELDEVMEEVLKDMDFYQESKGGVTLSGGEVLVQPDFAAALLKKCKENGIHTALETTAFSTPLVFSKVLANTDLLLLDIKHYNDREHIKYTGVSNQSILENLDFAVTMKVPVVARIPVIPSVNNTIQDAKEFVKLLKEHRVDTVNLLPFHQFGEKKYEELQVPYQLKDVKALRPEDMTEYYNVFKNAGLNVSM | not soluble
MINKTKEKLILIGMPGSGKTTIGKLLAKEYNCSFCDMDDYIIQISQKSIAELFSEGEDIFRNYETQACRELSISDKTVISTGGGVIKKDVNMEILKETGIIIFIDRPIQKILEDININSRPLLKNGKDRLYNLYNERINLYKKFSDIEILNDKSLNNAVYNITNAVSENFKFDFKEK | not soluble
MINMKPQYYLGMMSGTSLDGVDIVLVDFSQDPQLILSDFFPMPEDLREKLTTLIQVGETTLQNLGELDHKLALLYSDCVNAFLQKNTFLPNQIQAIGCHGQTVWHSPNSQFPFTMQLGDMNLLAAKTGISVIGDFRRKDMAWGGQGAPLVPAFHEAVFSNSNFATAVLNIGGISNVSILFPNQAVIGFDTGPGNTLLDQWIEKHQGLRYDENGEWAAKGNVNKVLLDELLNEPFFSLPAPKSTGRELFNLVWLNHKIAKIREKLTALSVEMSFRPEDVQATLVELTVTSIVNALNQLQTDLPKRLLVCGGGAKNSLIMRGLHDNLLDWQVSTTTEQGFDIDYVEAAAFAWLAYCRINNLPANLPSVTGAKSAVSLGAIFPKD | not soluble
MINPIASLSPLDGRYAQSVEALRPIFSEYGLMKARVKVELNWLKALAAEPKIAEVPPFSAETLAEIDTVIENFSLEDAAAVKAIEATTNHDVKAIEYWLKKRFAEVPEVAAVSEFIHFACTSEDINNLSHALMLQEAREAVLLPKLAEIIEKLTAMAHDLAAVPMMSRTHGQPATPTTLGKETANVVYRLQRQFKNLQAQEFLGKINGAVGNYNAHMVAYPDVDWETHCRNFVEISLGLTFNPYTIQIEPHDYMAEFFQTLSRINTILIDFNRDVWGYISLGYFKQKVKAGEVGSSTMPHKVNPIDFENSEGNLGMANAVLGFLSEKLPISRWQRDLTDSTVLRNMGVGVGYAVLGFAAHLRGLNKLEPNPAALAADLDATWELLAEPIQTVMRRYGVANPYEKLKDLTRGKGGITPEVLKGFIGLLEIPAEAKAKLLELTPALYVGKAEALAKRI | not soluble
MINRTLKQVEQMINGTGLAEQYEGITIQGVSIDTRKIEKGNLYVPIQGERFDGHAFVDKAVENGAVATLWVKDVANPPENLPVIFVEDTLSALQMLAKNYRDQLDVKVIGVTGSNGKTSTKDIVTSLLATKFKVQKTEGNFNNHIGLPLTILNLEENTEVAVLEMGMSSRGEIEFLSKLARPNAAIITNIGEAHLMDLGSREAIAEAKLEIVTGLQEGGVFVYNGDEPLLTNRVPEMNLIAETVTFGDARANDYYPTTVTLQATGTHFKMNREENISFYLPVLGKHNVYNTLASMAIAKYFGVTWEEMKEGLVTLQMTGMRMEIVKTDSGLTIINDAYNASPTAMEAAFHLMNGLDGFSKKIVVLGDMLELGDQEVQFHYEVGKLIDPAKISYVFTYGKLGAQIAEGAKINFPNERVKAYDNKEELVKELQAVVDTKDVVLVKASRGMKLEEVITMLK | not soluble
MINVDPPTGNFPASGGNSVHNIVSESDSRLAFKVKSSNNEHYRVRPVYGFIDPKGKTKLDINRIAGPPKVDKLVIQYAEVPADETDPQAPFKAGAQQGEVIVKITAE | not soluble
MIPADGWRHVGDQWLVSTDGAKIHASELADHLLADFGYAIVYDEMAEPVDLYRTQRFANDKQRLILTADQLLCADPQCTRAAYRGQAHHIEAWKNGGDTNLKNLCLTCGPHNALNDDDHAKGKHKNGHYVRDKYNGRIGWQPPDPTKSIRFNNHVLAQKSGRSWAIRHFGL | not soluble
MIPGEYIIKNEFITLNDGRRTLNIKVSNTGDRPVQVGSHYHFFEVNRYLEFDRKSAFGMRLDIPSGTAVRFEPGEEKTVQLVEIGGSREIYGLNDLTCGPLDREDLSNVFKKAKELGFKGVE | not soluble
MIPLVAPRSVIERVEAICREAGGILRVAPYRRLQVGLITTGSEVYKGRIKDAFGPVVRAKIASYGSEVALEKVVPDDAAAIHDAIEEMLAAGMQMVVLTGGMSVDPDDVTPDGIRRSGAEVVTYGAPVLPGAMFMLAYRGDVPIMGLPGCVMYYRATVFDLVLPRILVGERLEHHHHHH | not soluble
MIPRILGALLLCLACAAQAGVYTYIDAEGNRVYTDQPPSGRKAQRVELAPGNSVAPPGIRYRPPAAPLEVKPPAYQLLRILFPEPDATLRANSGDVIVTVTSEPALLPGHRYRLLLDGKPAGVPGRSPVFPLKNLDRGTHQVAVEIIDGDGMTVESTPSQPFHLHRVSIAGQPLPEVDTPLVSAIEPSER | not soluble
MIPTERRQIILDMVAEKGIVSIAELTERMHVSHMTIRRDLQKLEQQGAVIQVSGGVQSSTRVAHEPSHQIKTELATPQKAAIGKLAASLVQPESCIYLDAGTTTLAIARQLVTMNKLTVVTNDFVIADYLMDNSNCTIIHTGGAVCRENRSCVGEAAATLLRGLMIDQAFISASSWSVRGISTPAEDKVTVKRAVASASRQKILVCDATKYGQVATWLALPLAEFNQIVTDDGLPESAIRALAKVDISLLMAKQLEHHHHHH | soluble
MIQLEKLTKHFGTKRVVHDASAQFDKGQVTAIIGPNGAGKSTLLSMASRLVNRDAGKVWIEQRELVEWNTKALAQKLAVLRQSNVLNMRFTVRELTAFGRFPYSQGKLTTQDEQIINQAIEYLDLETIQYQYLDELSGGQRQLAFIAMVMAQDTDYVFLDEPLNNLDIKHSLQIMSTLRRLAHELNKAVVVVIHDINFASCYADKIVALKKGEVVATGSVRDVIQSEVLSAIYDTPFNVIEMQGQRLCLYTLPT | not soluble
MIRHRFSAEDFHRMAEAGILGEDDRVELIRGEVVELSPVGKRHMAALKRLMNALFPLQQAKKALLQVQDPLRLFPDTEPQPDLALLAYRDDFYRERVPEAKDALLVVEVAETSLDHDLQVKLPLYAQAGIPEVWVVDLVREKVHVFRKPQGEGYGEAQALEDGELSVLGLKVPVKEVLP | soluble
MIRIGVLISGSGTNLQAILDGCREGRIPGRVAVVISDRADAYGLERARRAGVDALHMDPAAYPSRTAFDAALAERLQAYGVDLVCLAGYMRLVRGPMLTAFPNRILNIHPSLLPAFPGLEAQRQALEHGVKVAGCTVHFVTAGVDEGPIILQAAVPVLEGDTVEDLRRRILAEEHRIYPEAIRLFAEGRLVIEGRRVRILDRAEAPRG | soluble
MIRKWDTKDTAPLLALWLDSTIHAHPFISESYWRDSVAVVRDVYLPAASTWVWEQDGELKGFVSVLDSRFVGALFVAPGATRQGIGRALLDEVKQHYAWLSLEVYQKNESAVSFYHAQGFRIEDCAWQDDTQHPTWIMRWPADQMP | not soluble
MIRLIFLDIDKTLIPGYEPDPAKPIIEELKDMGFEIIFNSSKTRAEQEYYRKELEVETPFISENGSAIFIPKGYFPFDVKGKEVGNYIVIELGIRVEKIREELKKLENIYGLKYYGNSTKEEIEKFTGMPPELVPLAMEREYSETIFEWSRDGWEEVLVEGGFKVTMGSRFYTVHGNSDKGKAAKILLDFYKRLGQIESYAVGDSYNDFPMFEVVDKVFIVGSLKHKKAQNVSSIIDVLEVIKHHHHHH | soluble
MIRLSEQSPLGTGRHRKCYAHPEDAQRCIKIVYHRGDGGDKEIRRELKYYAHLGRRLKDWSGIPRYHGTVETDCGTGYVYDVIADFDGKPSITLTEFAEQCRYEEDIAQLRQLLKQLKRYLQDNRIVTMSLKPQNILCHRISESEVIPVVCDNIGESTLIPLATWSKWCCLRKQERLWKRFIAQPALAIALQKDLQPRESKTLALTSREALEHHHHHH | not soluble
MIRQVIQRISNPEASIESLQERRFWLQCERAYTWQPIYQTCGRLMAVELLTVVTHPLNPSQRLPPDRYFTEITVSHRMEVVKEQIDLLAQKADFFIEHGLLASVNIDGPTLIALRQQPKILRQIERLPWLRFELVEHIRLPKDSTFASMCEFGPLWLDDFGTGMANFSALSEVRYDYIKIARELFVMLRQSPEGRTLFSQLLHLMNRYCRGVIVEGVETPEEWRDVQNSPAFAAQGWFLSRPAPIETLNTAVLAL | not soluble
